Experiment: soluble on expression in E. coli; label from the status in PepcDB or PDB records

Row | Sequence | soluble on expression in E. coli
1 | MDRSERLIQLISEEGIDAFLIMNIENSARASSVYFSGFTGSFSIILISENTRLLITDSRYTVQAKQETDFEVREVKGGDFIDVLKKTVNDLKIKTIALEEERVSLSLFRRISSAFGDRKFIGIDDEVKQMRMVKDEGEIEKIKQAIEISERAFLETVQQIRAGMTEKEIAALLEYTMRKEGAEGVAFDTIVASGCRSALPHGKASDKVVERGDVIVIDFGATYENYCADITRVVSIGEPSDEVKEVHSIVLEAQERALKIAKAGVTGKLLDSVAREFIREKGYGEFFGHSLGHGIGLEVHEGPAISFRNDSPLPENVVFTVEPGIYLEGKFGIRIEEDVVLKEQGCEILTTLPRSIFVV | soluble
2 | MEDIYYSPRYEDDEYEYRHVILPQAVSRKVPKGRLLSEAEWRRAGVQQSLGWEHYMVHNPEKHILLFRRKRHFTKADEERAKMELLRDMEVFNRAQQQTTATDEKLNAVFYEFVNKAV | not soluble
3 | FKAHCRRSVEGDTMLSLKAVSPTRLLKNKFYQDVFAAEQRGASVEELRELLGRGRAKQGIFEGDLHEGELEIGQAVSQISHAETVAEIMVDLVDGYKRSLAGMPTEI | not soluble
4 | MDLKITNGFYDPSHLSYEVVERKGLGHPDTLADGIAEQIEIDYSLYCLDKFGVIPHHNFDKIIIRGGHSVQDFGGSDFIEPIKIIFLGRASKKCFNSSIPLFKIQKKAATKYLNRILPNLDVENYVEFETLTSDFTTKTNWFSPEAIEDLPEYLDVPKANDTATMISYWPLTISEELALMIEGYFYKLDKNELPTPRFTKMGGDIKVMVVRNDLEYSIRINFPLISKFFNNDIESQLYVDKHVEKIKKYIEQKYKNISFSIDYHYYLTTTGSCIDFGEEGAVGRGNKTHGIISSFRPNTMEAPAGKNCTYFVGKVWGFLSDTIAKEIYEAFNTPCQIIMQLNIGSKLYRPTHLFIQTEESVDQERVLEIVNRHLNNGKQNTNLILSTQHFIPKTNVYDG | not soluble
5 | MSVIYKVVTRPSDPRVPNSPKKYYPHLITLGQSVNLKYIAQKMQGYSSLSIGDIKSVIQNFVEKMKEQLLEGKSVNIEGLGVFMLTACSKGADAAKDVNAKSVDSVRIFFQANKELRITKTATRADEKLDLISLDEYLKKLNASVTPNDPDDGENGGGGNEGGDEEAPDPTV | not soluble
6 | MSGQHRTRVGGVILAAGRSSRYESGNKLLATIDGKAVVRQVTETACKSSLSDAVAVLGHEKVAVAAALDGLSLSVQHNDEYATGQSASVRHGVEFARSAGWDAALFLLGDMPFVRVETIEELLEAYRTGTATVVVPEHEGRRGNPVLFDNCHFDSLASVSGDRGGRDIIETTEKTAFIEVSDPGVHWDIDTDADLAEFTDRRDSLLEHHHHHH | not soluble
7 | MHHHHHHQYKLALNGKTLKGETTTEAVDAATAEKVFKQYANDNGVDGEWTYDDATKTFTVTEGSQWQPQLQQLRDMGIQDDELSLRALQATGGDIQAALELIFAGGAP | soluble
8 | FDNLTDRLSRTLRNISGRGRLTEDNVKDTLREVRMALLEADVALPVVREFINRVKEKAVGHEVNKSLTPGQEFVKIVRNELVAAMGEENQTLNLAAQPPAVVLMAGLQGAGKTTSVGKLGKFLREKHKKKVLVVSADVYRPAAIKQLETLAEQVGVDFFPSDVGQKPVDIVNAALKEAKLKFYDVLLVDTAGRLHVDEAMMDEIKQVHASINPVETLFVVDAMTGQDAANTAKAFNEALPLTGVVLTKVDGDARGGAALSIRHITGKPIKFLGVGEKTEALEPFHPDRIASRILGMGDVLSLIEDIESKVDRAQAEKLASKLKKGDGFDLNDFLEQLRQMKNMGGMASLMGKLPGMGQIPDNVKSQMDDKVLVRMEAIINSMTMKERAKPEIIKGSRKRRIAAGCGMQVQDVNRLLKQFDDMQRMMKKMK | soluble
9 | MGSDKIHHHHHHMANLNDFTFFVHVVDHGGFAPAARALNLPKSTLSKRVAELEKDLGVRLINRTSRHFAVTESGKDFYRHAAAMMIEAEAAENVVRGRLAEPSGTVRITASVPTAQLSLAPLLPQLALAYPKLRVTLHATDRFVDVIQDGFDLAVRDHFAPLPDSGLVQRRIGFQAKLIVASPLYLQGNGTPERPEDLDHHDGLLTSLASEGWVMERADGSTVSVSPRPRFVADESRVLREAALAGLGITTLPGKLCQQEIESGTLIRILPEWTAGKVMTTILMPHRRGQLPSVRATVDFIAERLVDG | not soluble
10 | MGSDKIHHHHHHMKVFITGGTGFVGSAVVQELVANGFEVVGLARSETSAQKLISWGAQPVRGSLTSLSTLATAAAQADAIIHLGFNNDFRHFFQAGAMDRRAIETMGRAISGTNKPLVVTYGTTGIRKHVETEHEVADTGLLKWLTPRKSEIVARQLMAQNINAFVVRLSPAVHGAGDMGFTRTVIERAKKSHRAEYFGLGTHAWSAVHRLDAAHLFYLVTMYGLEHPTTNERVFNAVAEESITIAAIARTISRKLNVPLKAKYNPLSFGDTAMLYLINCPTSSQLTRQILGWVPVQPDLLTDISSSRY | not soluble
11 | MGHHHHHHSHKWELCPVTIISWLNLFLQVDALKDAPKVLLPQYSQETFIQIAQLLDLCILAIDSLEFQYRILTAAALCHFTSIEVVKKASGLEWDSISECVDWMVPFVNVVKSTSPVKLKTFKKIPMEDRHNIQTHTNYLAMLEEVNYINTFRKGGQLSPVCNGGIMT | not soluble
12 | MAHHHHHHMERTNLGHGAVGSLAQLCDELRKSYAAAKEIEQRDTTLTKSETANTLKETSNLFALGMEKLISSDGNVVEVKDAIALAEDAEREVAALRAEKARLQSTEDGHRSKLSATGSDAEVEAFVAYAKELSELHDHLFLARVVFKGVLTKRLEDIRDDRLSQQDKRFTDPKSWDVKKGVLERMLQSLRTKTAQLQLSAKTYLDEDEALFLEVMNLATEAGDHVRRGDAMREARDEKLKVFYAECAKLTGWCRQQLTNLEAMQEPDHVQEYCATLADNYPTMSNNFAVLFNSVQEYVQASLIPVHKALLEAEEVWLYLQVSTLERLSKTLFEIHPQSPLDVEVEKYSSYPEHAAKFLQDLERYLAAQHRQQDEVAELDSVHKECQEVLHTLSGQFAELPSEVHAFAQRAQALRAGYQCFREALLQRLTYVSPAASTVVESKRRQEEFENCVRELKSWAAEASHGESWRDIYSKIVEIKQMIKSEQASLEMKRERAVASGQSR | not soluble
13 | MKTKLMTLQDATGFFRDGMTIMVGGFMGIGTPSRLVEALLESGVRDLTLIANDTAFVDTGIGPLIVNGRVRKVIASHIGTNPETGRRMISGEMDVVLVPQGTLIEQIRCGGAGLGGFLTPTGVGTVVEEGKQTLTLDGKTWLLERPLRADLALIRAHRCDTLGNLTYQLSARNFNPLIALAADITLVEPDELVETGELQPDHIVTPGAVIDHIIVSQESK | soluble
14 | MIERGKFRSLTLINWNGFFARTFDLDELVTTLSGGNGAGKSTTMAAFVTALIPDLTLLHFRNTTEAGATSGSRDKGLHGKLKAGVCYSMLDTINSRHQRVVVGVRLQQVAGRDRKVDIKPFAIQGLPMSVQPTQLVTETLNERQARVLPLNELKDKLEAMEGVQFKQFNSITDYHSLMFDLGIIARRLRSASDRSKFYRLIEASLYGGISSAITRSLRDYLLPENSG | soluble
15 | MMEMITIKPGKITVQANPNMPKEVAELFRKQHYEIVGRHSGVKLCHWLKKSLTEGRFCYKQKFYGIHSHRCLQMTPVLAWCTHNCIFCWRPMENFLGTELPQPWDDPAFIVEESIKAQRKLLIGYKGNPKVDKKKFEEAWNPTHAAISLSGEPMLYPYMGDLVEEFHKRGFTTFIVTNGTIPERLEEMIKEDKLPTQLYVSITAPDIETYNSVNIPMIPDGWERILRFLELMRDLPTRTVVRLTLVKGENMHSPEKYAKLILKARPMFVEAKAYMFVGYSRNRLTINNMPSHQDIREFAEALVKHLPGYHIEDEYEPSRVVLIMRDDVDPQGTGVEGRFIKHLEHHHHHH | not soluble
16 | MADYNIPHFQNDLGYKIIEIGVKEFMCVGATQPFDHPHIFIDMGSTDEKICPYCSTLYRYDPSLSYNQTNPTGCLYNPK | not soluble
17 | MMDFEDFGNPLAGKPLSQADKAAAVLLAMGKGVAGKLLKFFTQHELQMIISSAQTLRVIPPDELAQIVAEFEDLFTEGTGLMDNAKAIESILEEGLTPEEVDSLLGRRAAFQAYEASIWDRLQEAEPEFVGKFLLREHPQTIAYILSMLPSSFGAKVLLTIPEEQRADIMNRTVNMKEVSPTAAQIIEKRVVNLINEIEAERNAGGSTKVADLMNELDKPQVDTLLSSLETLSKEAANKVKPKIFLFDDLMFMPQRSRVLLLNDVSADVLTMALRGATVEIKECVLSSISPRQRRMIESDLAVPQASLNTREVAIARRAVAQEAIRLANSGQIQLKDVAAEEQSAAA | not soluble
18 | MSQDIFTRDNLLRVENPNILVGESPVKYRVEEIYLDGKLKKAEDVDEEEKSYGIFMHSLVLSNYAEVMNVSHKKLDVIRDEKEKAIFYFTEEKGFDKSLIESIVPKVEAFSLNEDKLKVSTHIINEKMRIISRGTPDELLKRCSYILLDSKIVKKTRKIYREINRVLNDMINRCCTVYALAIKDVSKTDIITNVDAYIDGMTLVALIGMCRA | soluble
19 | MGSDKIHHHHHHMPNIDTFVPEKIQIGISSCLLGNQVRFDGGHKNSYYCRQEIEPFFEYTTVCPEMAIGMGTPRKSIRQIRDGDVVHIRSADGTLDVTDKLNEYSQAKVEELDYLGGYILCAKSPTCGMERVTEYKIGTNNGSKTGVGVFAKKLMERYPLLPVEEEGRLHDLPLRENFFTRVFAYNDWKQMTQSGLTKHKLMQFHSRYKYLLMAHSPKWYRDLGPILADIQDVEQTAQQYFEGFMTALKIIATRKNHTSTLQHIQGYFKKQLTAEQKEELSESILKYRQGLLPLLVPITLINHYVREFHTPYIQDQVYLNPHPEALKLRYAY | not soluble
20 | MKFSVLMSLYIKENPQFLRECFESLVAQTRQADEIVLVFDGVVTPDLEFVVTEFETKLPLKLVKLPQNRGLGKALNEGLLHCDYDWVFRMDTDDICVPDRFEKQVAFIEQHPESIIFGGQIAEFGKNVNDIVAYRNVPTSAQEIIKFTQKRCPFNHMTVAYQKSAVINCGGYEDLQEDYYLWIKLVAQGLYMANLPDILVYARVGNGMVSRRRGVNQAKAEWRLFKLKYRLGIQGLLSGLFTFALRFGSRLLPTSLLKKLYQTFLRK | soluble
21 | MLILSTEKEPNFEYEEITRSFLSNMLAFTRGHFTGDISHFSPIVLAEMEKDPNWLEEAAGGMQGVIVQSLLEDENFSSVEQLKGELARLIRLYFALAKDNLTENQESLYVDLFDKFTFLLLCSDEFIMYLDSQPKF | soluble
22 | MKLSFSLPPKSKSRVSLNSDRKDCIGAGNLKQFVTEFDPSETLTDSKPKYVIPPIEDRRRSYRSIDLPLPSASGLQFEAEIPSGDGSDNNITYGLNLRQKVENVEKPEPVEKMLLKSMRTDLESLPDAPEKEDFESFPVDGFGEALLAGYGWKPGQGIGLKAKEDVKIVEYEKWSGNEGFGFGKSDKAMKMIDNKLVGSGSHEEVKVGINKIENMEKDRVVRKRNRETEGESRTEVKACKQNYRGQTRETREKTSWLRSHIKVRIISKDVKGGRLYLKKAVVTDVVGPTSCDIAMDETQELVQGIDQELLETALPRRGGSVLVLSGRHKGVYGRLVEKDLDKETGVVCDADSQEMLHVKLDQVAEYIGDPADIGY | soluble
23 | MTADANKSESLLCMDKAREAIKSGDTDKARRMLLKAKKLDPGQNIEFLTKKIDDMTNNTSSSSQTSSSRASEERSYAHDDHYDDPNLRNRKARSPVKKNGKTEPEPKQRSASRTPKLGVDYTSEQKELVERIRHCKDYYEILKIDKKASDDDIRKEYRKLALKLHPDKCRAPHATEAFKALGNAYAVLSDTDKRRQYDQYGAEAANSHTPTTRRRGGGHGAFFEHDYAHGFEAEFTPEEIFNMFFGGGFPTEQVRRRARYAQQQQYHHYEQQQSPYGPLLQLLPLIAIMVIGLLAQLMVGEPAYSLHQTSKFTIKRLTADLRVPYFVRTDFETSYRGRIRQVEQQVEDDYIQNLRMNCYKEQNLKETKLYRARWMRDEAMMRDAERTPLPSCIRLNEIYSH | soluble
